In patent publication US5599792A, “Bone-stimulating, non-vasoactive parathyroid hormone variants” (Allelix Biopharmaceuticals Inc., priority 1994, dated 1997):

System: rat osteosarcoma cells of the UMR line (UMR-106), adenylate cyclase activity
Assay: UMR-106 based adenylate cyclase assay (cAMP formation)
Format: cell-based
Settings: UMR-106 cells, radiometric cAMP formation; read-out: EC50 (concentration of PTH or variant effective for half-maximal stimulation of adenylate cyclase activity)
Source text: In the present specification, "bone stimulating activity" is defined in the context of the osetosarcoma-based adenylate cyclase assay employed conventionally in the art. Briefly, this assay provides an in vitro determination of the extent to which PTH stimulates adenylate cyclase activity in rat osteosarcoma cells of the `UMR` lineage, and thus provides an indication of PTH effects on bone tissue in vivo. Protocols for conducting the assay have been described by Rodan et al, 1983, J. Clin. Invest., 72:1511 (in which the osteosaracoma cells of the ROS lineage are employed) and by Rabbani et al, 1988, Endocrinol., 123:2709 (which employs the line UMR-106).
Thawed or fresh samples of human PTH(1-84) and of PTH variants obtained as described above were then evaluated for biological activity in a UMR-106 based adenylate cyclase assay and the protocol as described by Rabbini et al, 1988, Endocrinology, 123:2709, which is incorporated herein by reference. As noted, rat osteosarcoma cells of the UMR line are stimulated by PTH to produce adenylate cyclase, an enzyme which catalyzes intracellular conversion of ATP to its cylic monophosphate analogue, cAMP. In this assay therefore, PTH activity is determined by assaying radiometrically the formation of cAMP in PTH-stimulated UMR cells. The results of the assays, expressed in terms of EC50 (concentration of PTH or variant effective for half-maximal stimulation of adenylate cyclase activity), are presented in Table 1.

EC50 [nM]	Molecule
400	[Cys^8 ]hPTH (protein, UniProt P01270 32-115, looked up, variant M8C) Parathyroid hormone: SVSEIQLCHNLGKHLNSMERVEWLRKKLQDVHNFVALGAPLAPRDAGSQRPRKKEDNVLVESHEKSLGEADKADVNVLTKAKSQ
1200	[Ala^8 ]hPTH (protein, UniProt P01270 32-115, looked up, variant M8A, Parathyroid hormone) Parathyroid hormone: SVSEIQLAHNLGKHLNSMERVEWLRKKLQDVHNFVALGAPLAPRDAGSQRPRKKEDNVLVESHEKSLGEADKADVNVLTKAKSQ

The next lines start with the molecule.

Molecule	EC50 [nM]
human PTH(1-84)	2
[Val^8 Leu^18 ]hPTH (protein, UniProt P01270 32-115, looked up, variant M8V M18L, Parathyroid hormone) Parathyroid hormone: SVSEIQLVHNLGKHLNSLERVEWLRKKLQDVHNFVALGAPLAPRDAGSQRPRKKEDNVLVESHEKSLGEADKADVNVLTKAKSQ	110
[Lys^8 Leu^18 ]: structurally related human PTH variant presented for comparison; Met8 replaced by Lys, Leu at 18 (protein, UniProt P01270 32-115, looked up, variant M8K M18L, Parathyroid hormone) Parathyroid hormone: SVSEIQLKHNLGKHLNSLERVEWLRKKLQDVHNFVALGAPLAPRDAGSQRPRKKEDNVLVESHEKSLGEADKADVNVLTKAKSQ	> 5000
[Cys^8 Leu^18 ]hpTH (protein, UniProt P01270 32-115, looked up, variant M8C M18L) Parathyroid hormone: SVSEIQLCHNLGKHLNSLERVEWLRKKLQDVHNFVALGAPLAPRDAGSQRPRKKEDNVLVESHEKSLGEADKADVNVLTKAKSQ	200
